Measured values as given in patent publication US20260130973A1, “COMPOSITIONS AND METHODS FOR DEGRADATION OF LIPOFUSCIN CYCLORETINAL BY MSP1” (THE TEXAS A&M UNIVERSITY SYSTEM, priority 2022, published 2026).
Changes are numbered by the printed parent chain. Names and notes keep the numbering of the source. “Also recorded” adds a separate entry of the source.

Legend:
[1] = MsP1 catalyzed degradation of cycloretinal; visual inspection and HPLC time course of degradation products; assay type: biochemical; settings: at 12 hours
Experimental: After 24 hours of incubation, broth cultures were transferred to sterile Eppendorf tubes and the organics extracted using an equal volume of dichloromethane (DCM) through vigorous vortexing. The organics were separated by centrifugation (13,000 rpm for 20 minutes), retrieved with a needle, and subsequently concentrated under nitrogen. The dried product was solubilized in 20 μL DCM and analyzed by high performance liquid chromatography (HPLC). HPLC analysis was performed on a Varian Prostar system equipped with a Phenomenex 5 μm 100 Å normal phase column (250×10 mm×5 micron), a UV detector set at 320 nm wavelength and mobile phase comprising 97% DCM and 3% methanol with flow rate of 2 mL/min. Products eluted were further analyzed by GC-MS.
Substrate emulsions (0.01%) were prepared, and Tween 40 was used to enhance solubilization of compounds, or otherwise dissolved in ethanol or DMSO. […]
To generate a standard curve for the degradation products, different concentrations of 2,4-dimethyl benzaldehyde (2, 4, 6, 8, 10 μg/20 μL) and β-ionone (1, 2, 3, 4 μg/20 μL) were analyzed by HPLC under the same conditions as as detailed in Example 3.
To identify the degradation products, cycloretinal was incubated for 1 hour with MsP1 in the presence of hydrogen peroxide. Following incubation, the reaction mixture was extracted and analyzed by GC-MS. […]

ARPE-19 cells = test: ARPE-19 cytotoxicity of liposomal complexes, MTT assay; assay type: cell-based; settings: similar concentrations as cycloretinal, 96-h period
Experimental: The liposomal complexes were prepared as follows. Cycloretinal (10 mg), β-Ionone (20 mg), and 2,4-Dimethylbenzaldehyde (20 mg) were dissolved separately in ethanol (1 mL). Glyoxal (5.80 mg), methylglyoxal (7.21 mg), and β-cyclocitral (15.2 mg) were dissolved separately in chloroform (1 mL). A liposome solution of cholesterol (112 mg), Tween 80 (504 mg), and L-α-phosphatidylcholine (730 mg) were dissolved in 16 mL of chloroform. Liposome solution (2 mL) was added to each of the compounds. The solvents were removed under vacuum and charged with nitrogen. Each of the flasks were then mixed with 5 mL of water and stirred at 60° C. for 1 h. Each solution was placed on ice and sonicated with a probe sonicator (15 seconds on/15 seconds off) for 5 min. The solutions were centrifuged at 11,000×g for 30 min and filtered through a 0.2 μm filter. Each sample (10 μL) was added to 1 mL ethanol and measured by absorption via UV-Vis spectroscopy. The extinction coefficients were 9970 M^−1cm^−1, 26343 M^−1cm^−1, and 13476 M^−1cm^−1 for cycloretinal, 2,4-dimethylbenzaldehyde, and β-ionone, respectively. […]
Cell viability was assessed with the MTT cell proliferation assay. […] The absorbance was subsequently evaluated at 570 nm utilizing a microplate reader (quant absorbance plate reader, BioTek Instruments Inc.) […]

[2] = Activity of MsP1 at different pH (cycloretinal degradation); assay type: biochemical
Experimental: To determine the optimum pH for MsP1 activity, cycloretinal degradation reactions were carried out in PBS buffer as described herein but at different pH values by adjusting pH with either NaOH or HCl (i.e. a pH of 5.5, 6.4, 7.0, 7.5). Sample OD values were monitored using a UV-Vis spectrophotometer (Genesys™2, ThermoSpectronic) at 430 nm over a period of 300 seconds.

[3] = substrate: CC(C=CC1=C(C)CCCC1(C)C)=CC=CC1=CC=C(C=O)C(C)(C=CC=C(C)C=CC2=C(C)CCCC2(C)C)C1; test: MsP1 H365F variant-catalyzed degradation of cycloretinal, steady-state enzyme kinetics; assay type: biochemical, Marasmius scorodonius; settings: other: H365F, PBS pH 7.4, H2O2, 430 nm, mean and 95% confidence limits
Experimental: (§1) The gene encoding Marasmius scorodonius extracellular peroxidase MsP1 (UniProtKB, B0BK71) and its R388L variant were chemically synthesized with codon optimization for E. coli, having an optimized sequence length 1539 bp cloned into pUC57 vector with a GC content of 54.67% (SEQ ID NO: 5).
(§2) MsP1 mutants were generated using the Agilent mutagenesis kit (Quick change II site directed mutagenesis kit, catalog number: 200523) and primers of Table 1. Primer annealing was carried out at 55° C. for 60 seconds followed by a polymerization step carried out at 68° C. for 5 minutes. A total of 16 cycles were carried out. After PCR amplification DpnI digestion was performed by adding 1.5 μL DpnI to PCR amplification mixture incubating for 4 hours at 37° C. The resulting mixture was cleaned using resin provided in the kit and transformed into XL1 Blue electrocompetent cells. The resulting clones were screened and sequenced to confirm mutagenesis.
(§3) Active site residues were selected based on multiple sequence alignment with homologous DyPs and protein modelling, His 365, Asp 228, and Arg 388 were identified as amino acids that are critical to MsP1 activity. […] This means that wtMsP1 has greater substrate affinity for cycloretinal, compared with D228A and R388L variants, and reaches half maximal velocity at lower substrate concentration. […] The greater affinity observed for the phenylalanine variant likely signifies that cycloretinal can dock with greater affinity in the active site since the iron porphyrin heme cofactor would no longer be covalently bound at residue 365. Therefore, the residues involved in MsP1 catalysis are D228, H365, and R388 (FIG. 10).

[4] = substrate: CC(C=CC1=C(C)CCCC1(C)C)=CC=CC1=CC=C(C=O)C(C)(C=CC=C(C)C=CC2=C(C)CCCC2(C)C)C1; test: MsP1-catalyzed degradation of cycloretinal, steady-state enzyme kinetics (decrease in absorbance at 430 nm); assay type: biochemical, Marasmius scorodonius; settings: other: wtMsP1, PBS pH 7.4, H2O2, 430 nm, mean and 95% confidence limits
Text: as §1

[5] = substrate: CC(C=CC1=C(C)CCCC1(C)C)=CC=CC1=CC=C(C=O)C(C)(C=CC=C(C)C=CC2=C(C)CCCC2(C)C)C1; test: MsP1 D228A variant-catalyzed degradation of cycloretinal, steady-state enzyme kinetics; assay type: biochemical, Marasmius scorodonius; settings: other: D228A, PBS pH 7.4, H2O2, 430 nm, mean and 95% confidence limits
Experimental: as §1, §2, §3

[6] = substrate: CC(C=CC1=C(C)CCCC1(C)C)=CC=CC1=CC=C(C=O)C(C)(C=CC=C(C)C=CC2=C(C)CCCC2(C)C)C1; test: MsP1 R388L variant-catalyzed degradation of cycloretinal, steady-state enzyme kinetics; assay type: biochemical, Marasmius scorodonius; settings: other: R388L, PBS pH 7.4, H2O2, 430 nm, mean and 95% confidence limits
Experimental: as §1, §2, §3

With `CC(=O)/C=C/C1=C(C)CCCC1(C)C` [β-ionone] the “level of degradation product in MsP1/cycloretinal reaction (HPLC, standard curve)” value [1] was “undetectable levels” and the “impact on cell viability / toxicity to ARPE-19 cells” value (ARPE-19 cells) was “no impact on cell viability; also recorded: do not exhibit toxicity”.

In the case of `O=CC=O` [glyoxal], the “impact on cell viability / toxicity to ARPE-19 cells” value (ARPE-19 cells) is reported as “no impact on cell viability; also recorded: do not exhibit toxicity”.

B1: MsP1: peroxidase enzyme from the organism Marasmius scorodonius, SEQ ID NO: 1; recombinant, N-terminal hexa-Histidine tag (protein, listed as Mycetinis scorodonius)
chain: MKLFSASVFAAIIASHYASATAHIRAPNVKPRRTNSLLTAPPQQPPLPSAQQAASASSSAGLNLTDIQGDILIGMKKNKELFFFFSITDAATFKAKLGSDILELITSTNQLLAVATQPITAVNVAFSSTGLKALGITDDLKDPVFEAGMLSNAVSDLSDPGTGNWVPGFVGTSVHGVFLLASDTIDNVNTELANIQTILNGSITEIHRLQGEARPGDQQGHEHFGFMDGISNPAVDGFTPPAEIRPGQALIPPGIMLLGEANDTFQNDRPPWAKDGSFLVFRQMQQRAPEFNKFLQDHALNMPNMTSEQGADLLGARIVGRWKSDAPIDLTPLVDDPVLAADNQRNNNFDFSDATNQTRCPFSAHIRKANPRGDLGGINKFPNQHIIRAGIPYGPEVTDAEKASNSSSTDPSLERGLAFVAYQSNIQNGFVFLQKNWVDNTNFFRPGTGVDPLIGTNSRNSGTDAPNTPRVVSGLDPNNATSTIEIGIDFVVSRGGEYFFSPSLSAIRTVLSV
modifications: MsP1 amino acid sequence
For B1, the “optimal pH for MsP1 catalytic activity towards cycloretinal” value ([2]; pH 5.5, 6.4, 7.0, 7.5 tested) was 5.5 and the “activity at lysosomal pH” value ([2]; pH of 5.5) was “highly active”.

B2: Marasmius scorodonius peroxidase MsP1 variant H365F (parent SEQ ID NO: 1) (Mycetinis scorodonius; H365F) (protein)
chain: ASSSAGLNLTDIQGDILIGMKKNKELFFFFSITDAATFKAKLGSDILELITSTNQLLAVATQPITAVNVAFSSTGLKALGITDDLKDPVFEAGMLSNAVSDLSDPGTGNWVPGFVGTSVHGVFLLASDTIDNVNTELANIQTILNGSITEIHRLQGEARPGDQQGHEHFGFMDGISNPAVDGFTPPAEIRPGQALIPPGIMLLGEANDTFQNDRPPWAKDGSFLVFRQMQQRAPEFNKFLQDHALNMPNMTSEQGADLLGARIVGRWKSDAPIDLTPLVDDPVLAADNQRNNNFDFSDATNQTRCPFSAFIRKANPRGDLGGINKFPNQHIIRAGIPYGPEVTDAEKASNSSSTDPSLERGLAFVAYQSNIQNGFVFLQKNWVDNTNFFRPGTGVDPLIGTNSRNSGTDAPNTPRVVSGLDPNNATSTIEIGIDFVVSRGGEYFFSPSLSAIRTVLSV
notes: site-directed mutant
B2 showed a Km [3] of 906 ± 26 µM, a kcat [3] of 0.142 ± 0.0031 s⁻¹ and a kcat/Km [3] of 156 ± 8 M⁻¹ s⁻¹.

B3: Marasmius scorodonius peroxidase MsP1, wild type (wtMsP1), SEQ ID NO: 1 (Mycetinis scorodonius) (protein)
chain: B2 chain with F310H
notes: wild type
Molecule B3 has a Km [4] of 845 ± 11 µM, a kcat [4] of 0.229 ± 0.0024 s⁻¹ and a kcat/Km [4] of 271 ± 6.2 M⁻¹ s⁻¹.

B4: Marasmius scorodonius peroxidase MsP1 variant D228A (parent SEQ ID NO: 1) (Mycetinis scorodonius; D228A) (protein)
chain: B2 chain with D173A, F310H
notes: site-directed mutant
In the case of B4, the Km [5] is reported as 4230 ± 82 µM, the kcat [5] is reported as 0.388 ± 0.0073 s⁻¹ and the kcat/Km [5] is reported as 91.6 ± 3.5 M⁻¹ s⁻¹.

B5: Marasmius scorodonius peroxidase MsP1 variant R388L (parent SEQ ID NO: 1) (Mycetinis scorodonius; R388L) (protein)
chain: B2 chain with F310H, R333L
notes: R388L variant gene synthesized
For B5, the Km [6] was 1140 ± 11 µM, the kcat [6] was 0.0218 ± 0.00018 s⁻¹ and the kcat/Km [6] was 19.2 ± 0.3 M⁻¹ s⁻¹.
